Consider two variants from PMC10267580.

Where only a bound is given, the exact number is not on record here.

B1: Rab6B^Q72L, GTPase domain (residues 8-176), constitutively active mutant [mouse] / ELKS1_RBD, Rab-binding domain of ELKS1 (residues 849-922) [rat] (parent)
chain 1: RKHLEEVLEMKQEALLAAISEKDANIALLELSSSKKKTQEEVAALKREKDRLVQQLKQQTQNRMKLMADNYEDD
chain 2: GNPLRKFKLVFLGEQSVGKTSLITRFMYDSFDNTYQATIGIDFLSKTMYLEDRTVRLQLWDTAGLERFRSLIPSYIRDSTVAVVVYDITNLNSFQQTSKWIDDVRTERGSDVIIMLVGNKTDLADKRQITIEEGEQRAKELSVMFIETSAKTGYNVKQLFRRVASALPG

Variants of B1 are the subject of one experiment. Description: ITC. The following applies: with ELKS1_RBD.
Take chain 2 L4E: the Kd (as a rule, the constant that tells how readily two partners part at equilibrium) is above 50 µM.

The experiment is the same for the next values; noted with them: with Rab6B^Q72L.
For chain 1 S20A, the Kd worked out at 26 µM.
